In the supplement of paper PMC10724198:
± gives the standard deviation of the averaged measurements.

tested on: Saccharomyces cerevisiae; assay: protein stability index of tFT-peptide fusion (C-terminal peptide) (PSI (0-1 scale)); higher = more stable (slower turnover); conditions: genetic background: wild type; temperature: 30 C
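Also: PSI is a weighted mean of sequencing reads over stability bins, variants kept only with over 10 reads, mCherry proximal and sfGFP distal, peptide attached via GGGS linker.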

| Sequence | protein stability index |
| --- | --- |
| LSGRQKLNMSIR | 0.682 ± 0.029 |
| LSHAQIDPEFTE | 0.697 ± 0.042 |
| LSHIPDRQRLKP | 0.715 ± 0.062 |
| LSHPPPPPSSAT | 0.716 ± 0.027 |
| LSHSSPLFSPLV | 0.72 ± 0.0077 |
| LSIGDLTIEKKL | 0.686 ± 0.022 |
| LSISPSPPPPLW | 0.706 ± 0.052 |
| LSKSPRPARCSA | 0.6091 ± 0.0024 |
| LSLGGSPSKRRP | 0.648 ± 0.029 |
| LSLPPHASPTPS | 0.735 ± 0.055 |
| LSLTRIFQLTRW | 0.721 ± 0.023 |
| LSPAPPHRYSPY | 0.7 ± 0.043 |
| LSPASPGPFLSC | 0.72 ± 0.022 |
| LSPCVGGLFGVV | 0.693 ± 0.017 |
| LSPFCIRSLRPD | 0.647 ± 0.069 |
| LSPPAPPLLFSP | 0.691 ± 0.035 |
| LSPPPHTSVPRL | 0.659 ± 0.12 |
| LSPPYCPGALTL | 0.646 ± 0.0081 |
| LSPVSPRPLLPV | 0.773 ± 0.12 |
| LSPYFWITEDAS | 0.7028 ± 0.0051 |
| LSRPCPFYPPPR | 0.701 ± 0.037 |
| LSSFFLLPCLSS | 0.576 ± 0.021 |
| LSSFHCIVTVKD | 0.652 ± 0.028 |
| LSSFPLPFPPPL | 0.659 ± 0.013 |
| LSSPPSPRAFLP | 0.723 ± 0.065 |
| LSSSVAPLIPPP | 0.767 ± 0.031 |

| Sequence | protein stability index |
| --- | --- |
| LSSVFLGICIMS | 0.543 ± 0.11 |
| LSSWPFLPLVRI | 0.593 ± 0.02 |
| LSTPPLPRPYPP | 0.654 ± 0.038 |
| LSTPSLFTPFRA | 0.715 ± 0.024 |
| LSVMLEGLFGLL | 0.662 ± 0.018 |
| LSVWPHSVPSFV | 0.659 ± 0.036 |
| LSYQTGTTRTRK | 0.728 ± 0.056 |
| LTFSPPERLSFH | 0.737 ± 0.12 |
| LTGGNPLTQDGD | 0.689 ± 0.019 |
| LTHLADVRSVLS | 0.708 ± 0.043 |
| LTHLLTSHTNII | 0.746 ± 0.081 |
| LTNGQRSLCLCS | 0.6537 ± 0.0048 |
| LTPNSLCSFLSR | 0.702 ± 0.013 |
| LTPSLPLPPSET | 0.654 ± 0.047 |
| LTRKTPQKRAPQ | 0.704 ± 0.013 |
| LTRLETSNITAI | 0.679 ± 0.041 |
| LTSVQFNKWTIE | 0.714 ± 0.047 |
| LTTMSPGLLRRP | 0.639 ± 0.065 |
| LTTRTQTDDRKR | 0.682 ± 0.0077 |
| LTVRVTSQPFDL | 0.658 ± 0.015 |
| LVCTLLGAASAP | 0.708 ± 0.033 |
| LVFAAGCVGGVR | 0.633 ± 0.021 |
| LVGGGGGVGSLV | 0.628 ± 0.042 |
| LVGGGVGVGSLV | 0.66 ± 0.011 |
| LVGRAITTLPPV | 0.66 ± 0.037 |
| LVGSRGCGKIVW | 0.6 ± 0.026 |

| Sequence | protein stability index |
| --- | --- |
| LVIWSFYSEGIV | 0.52 ± 0.017 |
| LVLFFPMLRIRI | 0.515 ± 0.041 |
| LVLGFDVTPGTF | 0.728 ± 0.017 |
| LVLHWPSPREAL | 0.713 ± 0.071 |
| LVLTPPLLSLYP | 0.683 ± 0.0083 |
| LVPLFVLPYGHP | 0.768 ± 0.073 |
| LVQCSAISARRF | 0.735 ± 0.026 |
| LVRFTDPIPQQA | 0.615 ± 0.026 |
| LVRGFVDKYVIS | 0.652 ± 0.01 |
| LVRLRRSLRLFL | 0.539 ± 0.037 |
| LVRPRFSPPPTP | 0.6882 ± 0.0057 |
| LVRVLHRSHASA | 0.685 ± 0.031 |
| LVSPPSPPLPPP | 0.728 ± 0.12 |
| LVVSHDSSLMMR | 0.7363 ± 0.0045 |
| LVVTTLQSVVLG | 0.559 ± 0.085 |
| LVVVRTGPPRWY | 0.669 ± 0.0073 |
| LVWLGCGLGGLC | 0.745 ± 0.054 |
| LWCCVFGLPSRG | 0.696 ± 0.072 |
| LWCDTRIDMSRH | 0.737 ± 0.038 |
| LWCFVVGEVNGV | 0.6209 ± 0.0034 |
| LWFCGLWPRVSG | 0.6384 ± 0.00068 |
| LWGPGAVWGRGR | 0.699 ± 0.049 |
| LWGPGGVWGRGR | 0.697 ± 0.05 |
| LWIVLFRKCELP | 0.592 ± 0.018 |
| LWKVVAPRDESP | 0.67 ± 0.023 |
| LWPLPSASVILL | 0.515 ± 0.12 |

| Sequence | protein stability index |
| --- | --- |
| LWPYSRYSFSPP | 0.726 ± 0.02 |
| LWSICWNRVFPF | 0.6973 ± 0.0017 |
| LWVGSGGARCVV | 0.624 ± 0.03 |
| LYGLFRIADVRR | 0.652 ± 0.15 |
| LYGSIPFGCRIL | 0.94 ± 0.018 |
| LYPLTPWYVVPP | 0.715 ± 0.11 |
| LYSFSIPPSLGS | 0.735 ± 0.085 |
| LYSPPPPPIPSP | 0.7046 ± 0.0067 |
| LYWSGFCPVFWG | 0.7164 ± 0.0027 |
| MANYIVEGGEPY | 0.723 ± 0.025 |
| MCVGGGCGRGGA | 0.719 ± 0.14 |
| MCVGSLMHKLRW | 0.6988 ± 0.0043 |
| MDDIAAYTGSCT | 0.661 ± 0.032 |
| MDTYIQKKKYIK | 0.69 ± 0.0099 |
| MENEDYIVRKKK | 0.73 ± 0.054 |
| MFGTVVFGAHRR | 0.749 ± 0.015 |
| MFVTQTGNRCKA | 0.668 ± 0.018 |
| MGFARDVYGSVC | 0.702 ± 0.022 |
| MGGTGRGGRREI | 0.667 ± 0.04 |
| MGGVGGLCGMWA | 0.683 ± 0.036 |
| MGPLHVMLQRAR | 0.805 ± 0.16 |
| MGVCLGPPTVWR | 0.684 ± 0.043 |
| MIKDVYIDNDNV | 0.694 ± 0.02 |
